“Also recorded” adds a separate entry of the source. Each block holds one molecule with its values, some of them ahead of it. Where no end group is shown, it is not given here. The star is where a group is joined. FITC = O=C1OC2(c3ccc(O)cc3Oc3cc(O)ccc32)c2ccc(NC(=S)*)cc21
Key:
KLHL12 Kelch domain = target: T1, KLHL12 Kelch domain (Homo sapiens, UniProt Q53G59); assay: Fluorescence polarization peptide binding to KLHL12; conditions: N-terminal FITC-labelled peptide 40 nM, 50 mM HEPES pH 7.5, 300 mM NaCl, 0.5 mM TCEP, 0.01% Triton-X, mean, n = 3
T1 construct: Human KLHL12 Kelch domain (Uniprot Q53G59-1, residues 268–567); His6 (N); made in house; host or cells: E. coli BL21(DE3)-R3-pRARE, vector pNIC28-Bsa4 (Addgene_38908)
T1 sequence (Q53G59 268-567): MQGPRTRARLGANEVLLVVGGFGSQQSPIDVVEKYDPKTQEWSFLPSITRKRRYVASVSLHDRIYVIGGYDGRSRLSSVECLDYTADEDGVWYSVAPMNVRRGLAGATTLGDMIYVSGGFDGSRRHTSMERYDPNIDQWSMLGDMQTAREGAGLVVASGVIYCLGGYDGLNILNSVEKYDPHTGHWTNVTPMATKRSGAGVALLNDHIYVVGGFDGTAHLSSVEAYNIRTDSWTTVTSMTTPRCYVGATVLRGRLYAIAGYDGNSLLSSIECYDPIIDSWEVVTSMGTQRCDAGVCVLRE
Method: Human KLHL12 Kelch domain (Uniprot Q53G59-1, residues 268–567) and KLHL7 Kelch domain (Uniprot Q8IXQ5-1, residues 283–586) were expressed from the vector pNIC28-Bsa4 in BL21(DE3)-R3-pRARE cells and purified by nickel affinity and size exclusion chromatography as described previously. Both plasmids are deposited in addgene (RRID:Addgene_38908 and RRID:Addgene_39023, respectively).
Fluorescence polarization assays were performed in 384-well plates using a Synergy 2 microplate reader (BioTek) with excitation and emission wavelengths of 485 nm and 528 nm, respectively. Peptides were synthesized, N-terminally labelled with FITC and purified by Tufts University Core Services (Boston, MA). Binding assays were performed in 10 µl volume at a constant labelled peptide concentration of 40 nM and indicated Kelch domain protein concentrations in a buffer containing 50 mM HEPES, pH 7.5, 300 mM NaCl, 0.5 mM TCEP and 0.01% Triton-X. Binding data were corrected for background of the free labelled peptides (no protein). For KD determination, data were fitted to a hyperbolic function using Sigma Plot software (Systat Software, San Jose CA). KD values represent mean ± S.E. (n = 3).

DVL1 = DVL1 stabilization by MLN4924 in HEK293T cells co-transfected with KLHL12; type: cell-based; conditions: western blot
Method: (§1) We further investigated whether the ‘PGGPP' motif regulates the KLHL12-dependent degradation of DVL1. WT and mutant DVL1 constructs were therefore transfected into HEK293T cells in the presence or absence of full-length KLHL12. […] By contrast, the levels of the DVL1 mutants were unchanged by KLHL12 co-expression.
(§2) Full-length Flag-KLHL12 and HA-DVL1 constructs were transfected into HEK293T cells at 60% confluency with polyethylenimine. 40 h after transfection, cells were treated with cycloheximide (CHX) for 1 h or MLN4924 for 4 h and then harvested and lysed. Protein levels were analysed by Western blotting (anti-Flag antibody, Sigma-Aldrich, F1804; RRID:AB_262044 and anti-HA antibody, Biolegend, 901501; RRID:AB_2565006).

[1] = target: T2, Human KLHL12 Kelch domain (residues 268-567) (human, UniProt Q53G59-1 268-567); assay: fluorescence polarisation; 40 nM FITC-labelled peptide, Kelch domain protein titrated; 50 mM HEPES pH 7.5, 300 mM NaCl, 0.5 mM TCEP, 0.01% Triton-X; hyperbolic fit, n = 3; conditions: both partners purified
T2 construct: KLHL12 Kelch domain, human, Uniprot Q53G59-1, residues 268-567; the structure traces residues 279-567; The His6 tag is kept in the SPOT arrays (detected with anti-His antibody); Expressed from the vector pNIC28-Bsa4; also called 6 x His-KLHL12 Kelch domain; His6-tagged KLHL12 Kelch domain
T2 sequence (looked up): T1 sequence (Q53G59 268-567)

[2] = system: full-length Flag-tagged KLHL12; assay: Co-immunoprecipitation of HA-DVL1 variants with Flag-KLHL12 in HEK293T cells; type: cell-based; conditions: MLN4924 4 h, anti-Flag immunoprecipitation, western blot
Method: To validate the identified ‘PGGPP' sequence as degron motif for DVL1 recruitment and degradation by the KLHL12, we tested the binding, ubiquitination and stability of DVL1 in HEK293T cells. Two variants of full-length HA-tagged DVL1 were prepared in which the 657-‘PPGGPP' motif was either mutated to ‘AAAAAA' or deleted. Immunoprecipitation of the complex using full-length Flag-tagged KLHL12 was performed in cells treated with the neddylation inhibitor MLN4924 to ensure the stability of all transfected DVL1 variants. […] To confirm that the interaction promoted DVL1 ubiquitination, we next transfected Flag-tagged KLHL12 and HA-DVL1 variants into cells pretreated with the proteasome inhibitor MG132. DVL1 was immunoprecipitated by anti-HA agarose and its ubiquitination status probed by immunoblotting for the presence of high molecular weight poly-ubiquitin conjugates. A marked reduction in the ubiquitination of the two DVL1 mutants was observed compared to wild-type consistent with the importance of the ‘PGGPP' motif for KLHL12 recruitment (figure 5b). […]
Full-length DVL1 variants (Uniprot O14640-1) and KLHL12 were subcloned into a pcDNA3 vector, with N-terminal HA tag and Flag tag, respectively. […] Results were analysed using western blotting (Anti-Flag antibody, Sigma-Aldrich, F1804; RRID:AB_262044; Anti-HA antibody, Biolegend, 901501; RRID:AB_2565006).

full-length KLHL12 = assay: Stability assay of DVL1 variants with or without KLHL12 in HEK293T cells; type: cell-based; conditions: KLHL12 co-expression versus DVL1 alone, cycloheximide 1 h, western blot, GAPDH loading control
Method: as §1, §2

[3] = target: T2, Human KLHL12 Kelch domain (residues …); assay: peptide or protein array; initial DVL1 SPOT array: 20-mer peptides on cellulose membrane, incubated with 0.4 µM His6-tagged Kelch domain protein in PBS for 1 h at 4°C, bound protein detected with HRP-conjugated anti-His antibody; conditions: both partners purified
KLHL12 = conditions: parallel study, ref [36] Zhao et al.; cited from earlier work
Text: The omitted proline position is substituted by a glycine or alanine in pa ...

Kd (KLHL12 Kelch domain): 22.3 µM
Molecule: CC(C)C[C@H](NC(=O)[C@H](CCC(=O)O)NC(=O)[C@H](CCCNC(=N)N)NC(=O)[C@@H](NC(=O)[C@@H]1CCCN1C(=O)[C@@H]1CCCN1C(=O)CNC(=O)CNC(=O)[C@@H]1CCCN1C(=O)[C@@H]1CCCN1C(=O)CNC(=O)CNC(=O)[C@@H](NC(=O)[C@@H](NC(=O)[C@@H](NC(=O)[C@H](Cc1ccc(O)cc1)NC(=O)[C@H](C)N)[C@@H](C)O)C(C)C)C(C)C)C(C)C)C(=O)N[C@@H](C)C(=O)N[C@@H](C)C(=O)N[C@H](C(=O)O)C(C)C [Spot A13]

Molecule: NS(=O)(=O)OC[C@@H]1C[C@@H](n2ccc3c(N[C@H]4CCc5ccccc54)ncnc32)C[C@@H]1O [MLN4924]
stability of DVL1 WT on MLN4924 (DVL1; HEK293T cells co-transfected with DVL1 WT and KLHL12, MLN4924 4 h): stabilized DVL1 WT; also recorded: rescued the stability of DVL1 WT
stability of DVL1 mutants on MLN4924 (DVL1; HEK293T cells co-transfected with DVL1 mutants and KLHL12, MLN4924 4 h): not DVL1 mutants

Kd [1]: 22.3 µM
B1: FITC-labelled DVL1 peptide, residues 650-669 (peptide, UniProt O14640-1 650-669, looked up)
peptide: {FITC}-AYTVVGGPPGGPPVRELAAV
notes: source: synthetic peptide (Tufts University Core Services), purified

B2: DVL1 WT: full-length HA-tagged wild-type DVL1 expressed in cells (protein)
chain: MAETKIIYHMDEEETPYLVKLPVAPERVTLADFKNVLSNRPVHAYKFFFKSMDQDFGVVKEEIFDDNAKLPCFNGRVVSWLVLAEGAHSDAGSQGTDSHTDLPPPLERTGGIGDSRPPSFHPNVASSRDGMDNETGTESMVSHRRERARRRNREEAARTNGHPRGDRRRDVGLPPDSASTALSSELESSSFVDSDEDGSTSRLSSSTEQSTSSRLIRKHKRRRRKQRLRQADRASSFSSITDSTMSLNIVTVTLNMERHHFLGISIVGQSNDRGDGGIYIGSIMKGGAVAADGRIEPGDMLLQVNDVNFENMSNDDAVRVLREIVSQTGPISLTVAKCWDPTPRSYFTVPRADPVRPIDPAAWLSHTAALTGALPRYGTSPCSSAVTRTSSSSLTSSVPGAPQLEEAPLTVKSDMSAVVRVMQLPDSGLEIRDRMWLKITIANAVIGADVVDWLYTHVEGFKERREARKYASSLLKHGFLRHTVNKITFSEQCYYVFGDLCSNLATLNLNSGSSGTSDQDTLAPLPHPAAPWPLGQGYPYQYPGPPPCFPPAYQDPGFSYGSGSTGSQQSEGSKSSGSTRSSRRAPGREKERRAAGAGGSGSESDHTAPSGVGSSWRERPAGQLSRGSSPRSQASATAPGLPPPHPTTKAYTVVGGPPGGPPVRELAAVPPELTGSRQSFQKAMGNPCEFFVDIM
modifications: left off: HA, N-terminal, kept
notes: full-length HA-tagged wild-type DVL1 expressed in cells
binding of DVL1 to KLHL12 (immunoprecipitation) [2]: bound robustly
binding of DVL1 to KLHL12 (immunoprecipitation) ([2]; listed as Wild-type (WT) DVL1): bound robustly to KLHL12
DVL1 protein level / stability (full-length KLHL12): striking reduction in the DVL1 protein level

binding result [3]: binds
B3: DVL1 20-mer peptide, residues 650-669, printed on the SPOT array (spot A13) (peptide, UniProt O14640-1 650-669, looked up)
peptide: AYTVVGGPPGGPPVRELAAV
notes: source: synthetic peptide, synthesized directly on a modified cellulose membrane with a polyethylglycol linker (SPOT)

B4: DVL3 (Zhao et al.): DVL3, KLHL12 binding by NMR in a parallel study by Zhao et al. (protein, UniProt Q92997 1-716, looked up)
Segment polarity protein …: MGETKIIYHLDGQETPYLVKLPLPAERVTLADFKGVLQRPSYKFFFKSMDDDFGVVKEEISDDNAKLPCFNGRVVSWLVSAEGSHPDPAPFCADNPSELPPPMERTGGIGDSRPPSFHPHAGGGSQENLDNDTETDSLVSAQRERPRRRDGPEHATRLNGTAKGERRREPGGYDSSSTLMSSELETTSFFDSDEDDSTSRFSSSTEQSSASRLMRRHKRRRRKQKVSRIERSSSFSSITDSTMSLNIITVTLNMEKYNFLGISIVGQSNERGDGGIYIGSIMKGGAVAADGRIEPGDMLLQVNEINFENMSNDDAVRVLREIVHKPGPITLTVAKCWDPSPRGCFTLPRSEPIRPIDPAAWVSHTAAMTGTFPAYGMSPSLSTITSTSSSITSSIPDTERLDDFHLSIHSDMAAIVKAMASPESGLEVRDRMWLKITIPNAFIGSDVVDWLYHNVEGFTDRREARKYASNLLKAGFIRHTVNKITFSEQCYYIFGDLCGNMANLSLHDHDGSSGASDQDTLAPLPHPGAAPWPMAFPYQYPPPPHPYNPHPGFPELGYSYGGGSASSQHSEGSRSSGSNRSGSDRRKEKDPKAGDSKSGGSGSESDHTTRSSLRGPRERAPSERSGPAASEHSHRSHHSLASSLRSHHTHPSYGPPGVPPLYGPPMLMMPPPPAAMGPPGAPPGRDLASVPPELTASRQSFRMAMGNPSEFFVDVM
binding to KLHL12 by NMR (KLHL12): confirmed the binding

Source: paper PMC7333892, “Identification of a PGXPP degron motif in dishevelled and structural basis for its binding to the E3 ligase KLHL12” (Open Biology, 2020)
